Laboratory results: paper PMC6009593

Molecular target: Mre11 (PfuMR complex);Rad50 (PfuMR complex) (Pyrococcus furiosus;Pyrococcus furiosus, UniProt Q8U1N9;P58301 1-426;1-882, |)
Experiment: EMSA

Mre11 (PfuMR complex);Rad50 (PfuMR complex), sequence (P58301 whole entry, one chain of several): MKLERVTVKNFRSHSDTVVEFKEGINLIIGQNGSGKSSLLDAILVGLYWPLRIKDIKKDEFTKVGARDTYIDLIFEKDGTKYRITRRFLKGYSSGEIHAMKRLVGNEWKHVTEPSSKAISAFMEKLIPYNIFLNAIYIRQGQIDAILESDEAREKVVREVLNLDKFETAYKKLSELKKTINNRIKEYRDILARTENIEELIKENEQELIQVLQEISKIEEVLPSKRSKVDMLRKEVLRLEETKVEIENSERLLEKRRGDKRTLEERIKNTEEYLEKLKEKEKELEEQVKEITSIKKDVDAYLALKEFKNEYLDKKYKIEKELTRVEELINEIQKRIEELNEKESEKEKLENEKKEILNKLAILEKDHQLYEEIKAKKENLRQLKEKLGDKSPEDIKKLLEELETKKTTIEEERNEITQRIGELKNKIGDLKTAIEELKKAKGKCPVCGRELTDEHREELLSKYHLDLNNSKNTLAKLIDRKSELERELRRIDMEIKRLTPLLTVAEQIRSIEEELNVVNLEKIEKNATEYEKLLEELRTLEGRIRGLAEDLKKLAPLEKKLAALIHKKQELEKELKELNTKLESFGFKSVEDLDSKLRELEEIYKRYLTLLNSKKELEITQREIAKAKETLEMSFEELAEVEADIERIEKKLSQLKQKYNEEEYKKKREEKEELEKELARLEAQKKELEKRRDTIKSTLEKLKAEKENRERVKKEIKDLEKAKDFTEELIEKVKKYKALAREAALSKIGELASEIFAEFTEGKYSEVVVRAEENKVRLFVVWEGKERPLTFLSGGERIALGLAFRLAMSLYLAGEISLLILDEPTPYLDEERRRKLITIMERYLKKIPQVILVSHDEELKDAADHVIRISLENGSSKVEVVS

B1: S50/50s (dsDNA)
DNA 1: CTGCAGGGTTTTTGTTCCAGTCTGTAGCACTGTGTAAGACAGGCCAGATG
DNA 2: CATCTGGCCTGTCTTACACAGTGCTACAGACTGGAACAAAAACCCTGCAG
modifications: phosphorothioate bonds at the last 5 linkages of the 3' end of strand 2 (CCCsTsGsCsAsG)
B1: binds.
